{"source": "patent US20110152341", "key": {"[1]": {"molecular_target": "T1, APP-derived peptide substrate sw D597isoD, H-GLTNIKTEEISEVNLi…-NH2", "T1 chain": "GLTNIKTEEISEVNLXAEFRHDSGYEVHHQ"}, "[2]": {"molecular_target": "T2, APP-derived peptide substrate wildtyp (wt), H-GLTNIKTEEISEVKMDAEFRHDSGYEVHHQ-NH2", "T2 chain": "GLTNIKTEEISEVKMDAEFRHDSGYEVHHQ"}, "[3]": {"molecular_target": "T3, APP-derived peptide substrate E599Q, H-GLTNIKTEEISEVKMDAQFRHDSGYEVHHQ-NH2", "T3 chain": "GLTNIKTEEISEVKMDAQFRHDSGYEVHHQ"}, "[4]": {"molecular_target": "T4, APP-derived peptide substrate swedish (sw), H-GLTNIKTEEISEVNLDAEFRHDSGYEVHHQ-NH2", "T4 chain": "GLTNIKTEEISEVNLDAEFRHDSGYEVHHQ"}, "[5]": {"molecular_target": "T5, APP-derived peptide substrate D597isoD, H-GLTNIKTEEISEVKMi…-NH2", "T5 chain": "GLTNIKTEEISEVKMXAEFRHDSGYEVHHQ"}, "[6]": {"molecular_target": "T6, APP-derived peptide substrate sw E599Q, H-GLTNIKTEEISEVNLDAQFRHDSGYEVHHQ-NH2", "T6 chain": "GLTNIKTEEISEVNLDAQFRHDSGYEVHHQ"}, "[7]": {"molecular_target": "Human APP with mutation E599Q overexpressed in HEK293 cells (pcDNA-hAPP/E3Q)", "sequence (chain, as listed by the source E599Q)": "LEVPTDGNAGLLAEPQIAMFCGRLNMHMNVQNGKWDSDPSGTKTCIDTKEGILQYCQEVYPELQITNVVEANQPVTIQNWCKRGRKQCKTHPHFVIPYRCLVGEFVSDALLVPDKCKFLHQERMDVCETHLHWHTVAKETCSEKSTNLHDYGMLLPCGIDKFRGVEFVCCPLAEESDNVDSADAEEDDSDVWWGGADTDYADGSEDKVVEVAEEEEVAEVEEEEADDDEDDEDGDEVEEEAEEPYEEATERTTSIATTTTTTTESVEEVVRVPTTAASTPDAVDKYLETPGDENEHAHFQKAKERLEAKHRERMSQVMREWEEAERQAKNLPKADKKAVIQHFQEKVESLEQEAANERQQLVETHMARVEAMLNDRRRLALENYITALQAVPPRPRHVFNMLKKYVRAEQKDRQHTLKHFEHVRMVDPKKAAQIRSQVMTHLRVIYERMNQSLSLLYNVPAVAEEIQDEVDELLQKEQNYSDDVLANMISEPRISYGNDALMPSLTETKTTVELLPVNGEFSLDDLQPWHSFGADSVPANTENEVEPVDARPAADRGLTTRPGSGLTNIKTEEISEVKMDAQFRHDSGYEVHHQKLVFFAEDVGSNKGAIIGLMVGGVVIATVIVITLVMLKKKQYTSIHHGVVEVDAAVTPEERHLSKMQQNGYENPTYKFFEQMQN"}, "[8]": {"molecular_target": "Human APP with swedish mutation K595N, M596L overexpressed in HEK293 cells (pcDNA-hAPPsw)"}, "[9]": {"molecular_target": "Human APP wildtyp transiently overexpressed in HEK293 cells (pcDNA-hAPP)"}}, "data": [{"protein": "Recombinant human meprin α (R&D systems) (protein) VPIKYLPEENVHDADFGEQKDISEINLAAGLDLFQGDILLQKSRNGLRDPNTRWTFPIPYILADNLGLNAKGAILYAFEMFRLKSCVDFKPYEGESSYIIFQQFDGCWSEVGDQHVGQNISIGQGCAYKAIIEHEILHALGFYHEQSRTDRDDYVNIWWDQILSGYQHNFDTYDDSLITDLNTPYDYESLMHYQPFSFNKNASVPTITAKIPEFNSIIGQRLDFSAIDLERLNRMYNCTTTHTLLDHCTFEKANICGMIQGTRDDTDWAHQDSAQAGEVDHTLLGQCTGAGYFMQFSTSSGSAEEAALLESRILYPKRKQQCLQFFYKMTGSPSDRLVVWVRRDDSTGNVRKLVKVQTFQGDDDHNWKIAHVVLKEEQKFRYLFQGTKGDPQNSTGGIYLDDITLTETPCPTGVWTVRNFSQVLENTSKGDKLQSPRFYNSEGYGFGVTLYPNSRESSGYLRLAFHVCSGENDAILEWPVENRQVIITILDQEPDVRNRMSSSMVFTTSKSHTSPAINDTVIWDRPSRVGTYHTDCNCFRSIDLGWSGFISHQMLKRRSFLKNDDLIIFVDFEDITHLSQTEVPTKGKRLSPQGLILQGQEQQVSEEGSGKAMLEEALPVSLSQGQPSRQKRSVENTGPLEDHNWPQYFRDPCDPNPCQNDGICVNVKGMASCRCISGHAFFYTGERCQAV", "values": [{"measurement": "peptide cleavage, fragments by MALDI-TOF mass spectrometry (numbering according to substrate 1-30)", "setting": "[1]", "result": "The fragments 5-30 and 7-30 were identified."}, {"measurement": "peptide cleavage, fragments by MALDI-TOF mass spectrometry (numbering according to substrate 1-30)", "setting": "[2]", "result": "The fragments 5-30, 7-30, 17-30 and 16-30 were identified."}, {"measurement": "peptide cleavage, fragments by MALDI-TOF mass spectrometry (numbering according to substrate 1-30)", "setting": "[3]", "result": "The fragments 5-30, 7-30, 5-21, 12-30 and 7-21 were identified."}, {"measurement": "peptide cleavage, fragments by MALDI-TOF mass spectrometry (numbering according to substrate 1-30)", "setting": "[4]", "result": "The fragments 5-30, 7-30 and 16-30 were identified."}, {"measurement": "peptide cleavage, fragments by MALDI-TOF mass spectrometry (numbering according to substrate 1-30)", "setting": "[5]", "result": "The fragments 5-30, 7-30, 1-21, 1-15, 17-30 and 16-30 were identified."}, {"measurement": "peptide cleavage, fragments by MALDI-TOF mass spectrometry (numbering according to substrate 1-30)", "setting": "[6]", "result": "The fragments 1-21, 7-30 and 5-30 were identified."}]}, {"protein": "Human meprin β transiently overexpressed in HEK293 cells (pcDNA-hMPβ) (protein) NSIIGEKYRWPHTIPYVLEDSLEMNAKGVILNAFERYRLKTCIDFKPWAGETNYISVFKGSGCWSSVGNRRVGKQELSIGANCDRIATVQHEFLHALGFWHEQSRSDRDDYVRIMWDRILSGREHNFNTYSDDISDSLNVPYDYTSVMHYSKTAFQNGTEPTIVTRISDFEDVIGQRMDFSDSDLLKLNQLYNCSSSLSFMDSCSFELENVCGMIQSSGDNADWQRVSQVPRGPESDHSNMGQCQGSGFFMHFDSSSVNVGATAVLESRTLYPKRGFQCLQFYLYNSGSESDQLNIYIREYSADNVDGNLTLVEEIKEIPTGSWQLYHVTLKVTKKFRVVFEGRKGSGASLGGLSIDDINLSETRCPHHIWHIRNFTQFIGSPNGTLYSPPFYSSKGYAFQIYLNLAHVTNAGIYFHLISGANDDQLQWPCPWQQATMTLLDQNPDIRQRMSNQRSITTDPFMTTDNGNYFWDRPSKVGTVALFSNGTQFRRGGGYGTSAFITHERLKSRDFIKGDDVYILLTVEDISHLNSTQIQLTPAPSVQDLCSKTTCKNDGVCTVRDGKAECRCQSGEDWWYMGERCEKRGSTRDTIVIAVSSTVAVFALMLIITLVSVYCTRKKYRERMSSNRPNLTPQNQHAF", "values": [{"measurement": "amount of secreted Aβ (ELISA from IBL, non specific for the Aβ N-terminus)", "setting": "[7]", "result": "significantly increased for APPwt and APP/E3Q"}, {"measurement": "secreted Aβ estimated with antibody 6E10 (ELISA)", "setting": "[7]", "result": "Secretion of Aβ is significantly increased after transfection with pcDNA-hMPβ and pcDNA-hAPP wildtyp, swedish and E3Q."}, {"measurement": "secreted Aβ estimated with antibody 6E10 (ELISA)", "setting": "[8]", "result": "Secretion of Aβ is significantly increased after transfection with pcDNA-hMPβ and pcDNA-hAPP wildtyp, swedish and E3Q."}, {"measurement": "amount of secreted Aβ (ELISA from IBL, non specific for the Aβ N-terminus)", "setting": "[9]", "result": "significantly increased for APPwt and APP/E3Q"}, {"measurement": "generated Aβ species by urea western-blot after immuno-precipitation", "setting": "[9]", "result": "revealed the formation of an additional Aβ species after co-transfection with hAPP and human meprin β compared to transfection with hAPP. This additional Aβ species co-migrates with Aβ3-40."}, {"measurement": "secreted Aβ estimated with antibody 6E10 (ELISA)", "setting": "[9]", "result": "Secretion of Aβ is significantly increased after transfection with pcDNA-hMPβ and pcDNA-hAPP wildtyp, swedish and E3Q."}, {"measurement": "secretion of Aβ (ELISA, IBL kit with antibody 6E10), with and without 20 µM actinonin", "setting": "[9]", "result": "Secretion of Aβ is significantly increased in HEK293 after transient overexpression of hAPP and hMPβ (see FIG. 26). This increase is reduced to almost the basal level by the addition of 20 µM actinonin."}]}, {"protein": "Recombinant human meprin β (R&D systems) (protein) TPENFDVDGGMDQDIFDINEGLGLDLFEGDIRLDRAQIRNSIIGEKYRWPHTIPYVLEDSLEMNAKGVILNAFERYRLKTCIDFKPWAGETNYISVFKGSGCWSSVGNRRVGKQELSIGANCDRIATVQHEFLHALGFWHEQSRSDRDDYVRIMWDRILSGREHNFNTYSDDISDSLNVPYDYTSVMHYSKTAFQNGTEPTIVTRISDFEDVIGQRMDFSDSDLLKLNQLYNCSSSLSFMDSCSFELENVCGMIQSSGDNADWQRVSQVPRGPESDHSNMGQCQGSGFFMHFDSSSVNVGATAVLESRTLYPKRGFQCLQFYLYNSGSESDQLNIYIREYSADNVDGNLTLVEEIKEIPTGSWQLYHVTLKVTKKFRVVFEGRKGSGASLGGLSIDDINLSETRCPHHIWHIRNFTQFIGSPNGTLYSPPFYSSKGYAFQIYLNLAHVTNAGIYFHLISGANDDQLQWPCPWQQATMTLLDQNPDIRQRMSNQRSITTDPFMTTDNGNYFWDRPSKVGTVALFSNGTQFRRGGGYGTSAFITHERLKSRDFIKGDDVYILLTVEDISHLNSTQIQLTPAPSVQDLCSKTTCKNDGVCTVRDGKAECRCQSGEDWWYMGERCEKRGSTRDT", "values": [{"measurement": "peptide cleavage, fragments by MALDI-TOF mass spectrometry (numbering according to substrate 1-30)", "setting": "[1]", "result": "The fragment 12-30 were identified."}, {"measurement": "peptide cleavage, fragments by MALDI-TOF mass spectrometry (numbering according to substrate 1-30)", "setting": "[2]", "result": "The fragments 1-16, 1-15, 17-30, and 18-30 were identified."}, {"measurement": "peptide cleavage, fragments by MALDI-TOF mass spectrometry (numbering according to substrate 1-30)", "setting": "[3]", "result": "The fragments 8-30, 9-30, 1-22, 1-21, 12-30 17-30 18-30 9-21 were identified."}, {"measurement": "peptide cleavage, fragments by MALDI-TOF mass spectrometry (numbering according to substrate 1-30)", "setting": "[4]", "result": "The fragments 16-30, 17-30 1-15 and 18-30 were identified."}, {"measurement": "peptide cleavage, fragments by MALDI-TOF mass spectrometry (numbering according to substrate 1-30)", "setting": "[5]", "result": "The fragments 1-15, 1-16, 17-30 and 16-30 were identified."}, {"measurement": "peptide cleavage, fragments by MALDI-TOF mass spectrometry (numbering according to substrate 1-30)", "setting": "[6]", "result": "The fragments 16-30, 1-15, 9-21 and 9-20 were identified."}]}]}
